In the RNAGym collection of RNA variant scans (doi:10.1073/pnas.2313332121):

B1: TPR t1 (parent)
chain: GACCAAUCUGCCCUCAGAGCUCGAGAACAUCUUCGGAUGCAGAGGAGGCAGGCUUCGGUGGCGCGAUAGCGCCAACGUCCUCAACCUCCAAUGCAUCCCACCACAUGAUGAUGCCUGAAGAGCCUUGGUUUUUUG

Variants of: B1
Assay: polymerase ribozyme fitness, log enrichment relative to wild type (log ratio); higher = more active; in vitro selection for triplet polymerase activity
In short: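 Input and output libraries were sequenced on Illumina after a single in vitro selection round, run in triplicate on PCR-built, transcribed mutant libraries of each subunit of a heterodimeric triplet polymerase ribozyme. Selection annealed libraries to a biotinylated primer, the partner subunit and triplets, incubated them frozen at −7 °C, then gel-excised extended constructs for streptavidin-bead capture and RT-PCR. Genotypes with ≥10 input reads and ≥1 read per output were kept. Fitness is the logarithm, taken in base 2, of genotype enrichment divided by wild-type enrichment, using inverse-variance-weighted replicate averages.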

Point of comparison: C28A C64G A111U C115G, “polymerase ribozyme fitness (log ratio)” value -6.15. Against it:
- C28G G57C A84U C94U A118U — higher, -2.35
- A27U A46U G61A C85U C94U — higher, -3.53
- A27G A100U — higher, -3.23
- A27U A68G — higher, -5.61
- A27G C98U — higher, -3.4
- C28U C40A — higher, -2.12
- A27G C56A C104U — higher, -2.14
- C28G G47C — higher, -3.69
- C28G A84U A103U G110C — higher, -4.22
- C28G C56G G61A G77A — higher, -2.42
- C28U A43G C72G U112G — higher, -5.26
- C28A A50C C73A G113A — higher, -4.23
- A27U A41U — higher, -4.42
- A27U C40G G57U U112A — higher, -3
- A27C G47U U106A C124A U130A U133A — higher, -3.86
- A27C G60C C73G — higher, -2.55
- A27U C82U — higher, -2.99
- C28G C64U U81A G93U C101U U112G — higher, -5.16
- A27C G48U — higher, -4.11
- A27G C88U C115U — higher, -4.85
- C28G C124G — higher, -0.979
- A27G G120C — higher, -0.195
- A27G G120A — higher, -1.1
- A27U U30C C76A C99G C102A A105U C115U — lower, -6.7
- A27U A84C G120U U125C — higher, -1.52
- A27G C28U U116C U130C — higher, -5.27
- A27G U87C — higher, -1.74
- C28G A95U G110C A111C U133A — higher, -1.6
- C28G C89A — higher, -4.51
- C28A A68G A74U G93A C114G — lower, -7.51
- A27G A74C C115G — lower, -6.8
- C28A C124A U125C G127U — higher, -3.12
- A27U C82G C102A C123A — higher, -4.66
- C28U A37U — higher, -2.36
- C28U A29G C72U U112A C124U — lower, -7.83
- A27U U131C — higher, -2.91
- A27G C62A — higher, -2.85
- A27G C70U — higher, -2.05
- C28G C72U — higher, -3.07
- A27G A103U U112A U130C — higher, -5.43
- C28G G60U C80U C115U G120C C123A U131A — lower, -6.73
- A27U G48C — higher, -3.79
- A27C G61U G110A C123G — higher, -3.8
- A27G A83G G93A — higher, -3
- C28G G60A C79G — higher, -4.94
- C28A C85U A121U — higher, -3.69
- A27U G71C — higher, -4.45
- C28G G69A A121C — higher, -5.9
- A27U C72A — higher, -2.61
- C28U C34A C53G C124A — higher, -4.41
- A27U U59A — higher, -3.1
- A27U G47A — higher, -4.02
- A27U G47C — higher, -4.91
- C28G U59A C89G A103G C104A U109G C123G U133A — higher, -5.51
- C28G C72A C98A G122U — higher, -5.55
- A27G A43U G47A C98U — higher, -5.67
- A27C C124U — higher, -1.18
- A27U U54G C123U — higher, -1.23
- C28G C53G U59A C73A C89A U109G A111U G120A — lower, -6.66
- C28A G117A — higher, -4.5
- C28A G63C — higher, -4.91
- A27G U38A A83C — higher, -2.58
- A27U C64U — higher, -2.76
- A27G G110A — higher, -1.89
- A27G G110U — higher, -3.11
- A27U U133C — higher, -2.05
- A27G A95U — higher, -2.82
- A27G C40U — higher, -2.39
- C28G G42A A43C G69U U96A C101U C124U — higher, -4.78
- A27U A29G G122A — higher, -3.63
- C28A U32C — higher, -3.9
- A27U G36U G60U — higher, -4.13
- C28G U59A C104U G113C — higher, -5
- C28G G63A — higher, -4.42
- A27C G45U U106C — higher, -4.75
- A27U G63A G69U U131C — higher, -4.16
- A27G U32A G36U G44A G63C C76A — lower, -7.06
- A27C G44U C64U — higher, -4.14
- C28G U38C G77C A84U U92C G113U U129G — higher, -5.83
- A27U G47A C49U U96A A119U — higher, -5.56
- A27U C124A — higher, -0.764
- A27G G69C — higher, -2.33
- A27U A95C — higher, -4.26
